Results: publication PMC7337937, “CryoEM structures of human CMG–ATPγS–DNA and CMG–AND-1 complexes” (Nucleic Acids Research, 2020)

Tests used:
[1] = target: the molecule itself; assay: cryo-EM structure; CMGA: AND-1 co-expressed with the CMG subunits in HEK293-F, co-purified; 1 mM ATPγS added, glutaraldehyde cross-linked before grid preparation; 6.77 Å map, CMG structure and AND-1 trimer crystal structure docked as rigid bodies
[2] = target: human CMG helicase (Cdc45-MCM2-7-GINS) (Homo sapiens, UniProt O75419;P49736;P25205-2;P33991;P33992;Q14566;P33993;Q14691;Q9Y248;Q9BRX5;Q9BRT9 …); assay: cryo-EM structure (3.29 A); 100 uM ATPgS, 5 mM Mg acetate; ATPgS-Mg2+ at MCM6, MCM4, MCM7; ADP at MCM2, MCM3; MCM5 apo; Buffer S: 25 mM HEPES pH 7.5, 50 mM KCl, 5 mM Mg acetate, 2 mM DTT, with 100 uM ATPgS and 4 uM fork DNA, loaded on StrepTrap-bound CMG; eluted with 15 mM desthiobiotin; binding temperature not stated; conditions: protein: recombinant; tags: MCM4 N-terminal His8-TEV; Psf2 C-terminal TEV-2xStrepII; copies: 1;1;1;1;1;1;1;1;1;1;1; fork: 40 bp duplex 1:1-40 2:31-70; 30 nt unpaired tails, 3' poly-dT (strand 1) and 5' GC-rich (strand 2)

Row | Binder | stoichiometry N [1] | binding result [2]
1 | human AND-1, recombinant full length (natural protein, UniProt O75717 1-1129, looked up, AND-1, human, full-length ORF from IMAGE cDNA clone 6514641; The tag is 2xStrepII-TEV; no TEV cleavage step is described; Only the SepB domain is visible in the map; also called AND-1 trimer; source: HEK293-F, transient co-transfection with the CMG subunits, co-purified as CMGA) MPATRKPMRYGHTEGHTEVCFDDSGSFIVTCGSDGDVRIWEDLDDDDPKFINVGEKAYSCALKSGKLVTAVSNNTIQVHTFPEGVPDGILTRFTTNANHVVFNGDGTKIAAGSSDFLVKIVDVMDSSQQKTFRGHDAPVLSLSFDPKDIFLASASCDGSVRVWQISDQTCAISWPLLQKCNDVINAKSICRLAWQPKSGKLLAIPVEKSVKLYRRESWSHQFDLSDNFISQTLNIVTWSPCGQYLAAGSINGLIIVWNVETKDCMERVKHEKGYAICGLAWHPTCGRISYTDAEGNLGLLENVCDPSGKTSSSKVSSRVEKDYNDLFDGDDMSNAGDFLNDNAVEIPSFSKGIINDDEDDEDLMMASGRPRQRSHILEDDENSVDISMLKTGSSLLKEEEEDGQEGSIHNLPLVTSQRPFYDGPMPTPRQKPFQSGSTPLHLTHRFMVWNSIGIIRCYNDEQDNAIDVEFHDTSIHHATHLSNTLNYTIADLSHEAILLACESTDELASKLHCLHFSSWDSSKEWIIDLPQNEDIEAICLGQGWAAAATSALLLRLFTIGGVQKEVFSLAGPVVSMAGHGEQLFIVYHRGTGFDGDQCLGVQLLELGKKKKQILHGDPLPLTRKSYLAWIGFSAEGTPCYVDSEGIVRMLNRGLGNTWTPICNTREHCKGKSDHYWVVGIHENPQQLRCIPCKGSRFPPTLPRPAVAILSFKLPYCQIATEKGQMEEQFWRSVIFHNHLDYLAKNGYEYEESTKNQATKEQQELLMKMLALSCKLEREFRCVELADLMTQNAVNLAIKYASRSRKLILAQKLSELAVEKAAELTATQVEEEEEEEDFRKKLNAGYSNTATEWSQPRFRNQVEEDAEDSGEADDEEKPEIHKPGQNSFSKSTNSSDVSAKSGAVTFSSQGRVNPFKVSASSKEPAMSMNSARSTNILDNMGKSSKKSTALSRTTNNEKSPIIKPLIPKPKPKQASAASYFQKRNSQTNKTEEVKEENLKNVLSETPAICPPQNTENQRPKTGFQMWLEENRSNILSDNPDFSDEADIIKEGMIRFRVLSTEERKVWANKAKGETASEGTEAKKRKRVVDESDETENQEEKAKENLNLSKKQKPLDFSTNQKLSAFAFKQE | 3 | –
2 | fork DNA (70T/70GC) (mixed) DNA 1: CGTTTTACAACGTCGTGACTGGGCACTTGATCGGCCAACCTTTTTTTTTTTTTTTTTTTTTTTTTTTTTT DNA 2: CAGGCAGGCAGGCAGGCAGGCAGGCAGGCAGGTTGGCCGATCAAGTGCCCAGTCACGACGTTGTAAAACG | – | binds
